Test results published in the domain aggregation screens of Martell et al. (2025).

Experiment: soluble fraction after stress (log2 fold change); higher = more stays soluble; pooled small domains, quantitative proteomics
Conditions: stress: pH 4
In short: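 Custom libraries of small protein domains were pooled and measured with high-throughput quantitative proteomics after pH 4 stress. The read-out is the fold change in the amount of each domain that stays soluble after the acid stress, taken as a measure of aggregation propensity. Fold changes are on a log2 scale, and higher values mean more of the domain stayed soluble.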

Sequence	soluble fraction (log2)
HMRKVTDTHELSSVVKSVIDQWEEKAAEYRAGKSGLLGFFVGEVMKKTGGAADPEAAKSLLQDRLD	-0.285
HMETYTVPEVLGLTPEQAAQLPEVKDIFTLDVKEEGDFSDKPVGTIVRQSPTEGEHRKGDNLVIEVWLSV	-0.269
HMSDRFLDQEGVALSTLRPSGTVVLDSGEHLDVVTRGEFIEQGERVKVIKAESTWYVVEQIN	-0.317
HMRYQIAEARKLRDITQAELAEKMGTTQQTIQRYETNQVNIRMDKMIEMSEILNVSLAYLLGMSSSPEL	0.122
HMKLIRLGKAAGELNVGMSTLAEFLQSKGHSVDPNPNTKLTPEQYALLRMEFAADQTLKKLTKQP	-0.117
HMALGRTGEVYLPIPAGRAGHGKISITLQGALREVDAVTAGEALPRGTSVRVVDVAGNGVLLVEK	0.32
HMGGKWKLRILLALENSAQDALRYGEIKNIVSGITDMMLSQSLRELTADGLIERRQYQEIPPKVEYRLS	-0.868
HMDDVVVLPFTAEFARMSSDDFVREILVGKIGMKRFVVGYNHRFGSGQQGDFASLQRMQGELGFVAVRVG	-0.479
HMAPFVIQQGQDVRLISKGPGFAVSNDGKALTNAAEGQLARARTANGQTVSGIARQGGIIEIA	-0.068
HMHSFFGDNIKKLRTAKKMSQEQLADIFGITKAGISYWETGRSEPNFATVQKLADFFGVTTSDLLGEA	0.187
HMNPLLSAYLAEVERGLQGLTAGRRRLVLRELEAHLLDEAEARGLLTEEDMRALLMEKEPPERLAQEIAQ	-0.925
HMTGQLTEEELKQRQERAMSNPEIQGILSDPVMRQVLQDMSTDPKAAAEHQRNPTIMAKIQKLINAGIVQV	-0.0717
HMLRQRVFRIIQNNINSKNYFVYTKQILAELAGISMRSLNRTLSELQNDRLIIVDSGTIRLFT	-0.824
HMPGGLSAEDVEKMVEKVLTVNGDVVEEIRSGRDPKGKKIKFLAGLVMRDARGQADAAAVSGILERRLKEG	0.371
HMIGVQEFAMTYALTRRETEITQLIIQGKSNAMIAGELFISETTVKKHVSNIFEKTGVSRREELMVRVQAE	-1.45
HMVYFDDEELDRFAGRAADSYTSDETDEFRDVMLTLLPADVMPWTQSIEMRGILLPEQLRDELLML	-1.26
HMTNSAGIERFLASGAIDGVGPAMARRIVEHFGTEALRIIESVPHRLREISGIGPKTAEKIASSYMRQ	-0.618
HMNETHANKVYNFLKKKKKPLSAYEILKELASEGISAPTTIYRALNKLVSNGLIHKIESLNAWTV	0.185
HMYQKERDKEISEIETFLKKITNANGTRAYSDESIADMSYVELLNLYEGITSKLTEEEIENI	-0.644

Sequence	soluble fraction (log2)
HMDYKSKLQELVQTEKRTVEYKLVDESGPAHNKSFTFEVVISGIKYGSGTGASKKIAEQNAAKEALEKLA	0.144
HMDSAMMDLVMRVQLALFTKGYDVGIIDGKIGPKTRAQIKRYQSDNRLSSTGTLTTSLLTSLGIQ	0.00457
HMDKPIFTLRENEVLYWASMGKTYAEIATIVGISVRTVKFHMGNVVSKLGVSNARQAIRLGVELDLITPMQ	-1.76
HMGPPAVGSKLQDARKAQQLSLDELSKRAGVSKSMLSEVERNQANPTVGVLWRLATALGISLTDLLG	-0.549
HMESRRVTLLLPYDKAGIADTLRREAAVLSLEYGEDGVTVEAVVKPELWGLVREYVQNDNPK	-0.319
HMAPSVNEVAWAQKIIDAHAEAAAAGKGLVVVDGKLIENLHVEEAKQLLSLSDAIAKNDASNG	-0.31
HMKDTNENLMKMLALLIHAAKIDENYSDEEKELIVNFAEMSSKENLNREQILSIIKSAEEYE	-0.673
HMTMLLEYNVSRSSKWMNKTIMDAEIPDDILIVMIKRNGQVIVPKGSTEILENDILVLSGNNLNEVALG	-1.46
HMNSVSARRSAAITAISTGRIHSQEDLVQALKKAGYPVTQATASRDIEEIGAVRIRNQKGEMVYAIS	0.321
HMTDVRFIDIPVTEHHPWNGMKVRDLQLPPGTLLVFLSHPGEKNTVPHGETVLRSGDVLVLGATAYTGQ	-0.681
HMKTPETSEYVVQAGDSLRRILTERYGAKEQDLPYLYRQFRLLNPKVSSLDNIHAGTKVRIPLVASVL	-0.0112
HMITETIGANIKTLRDKFRMSQQDLASKMNTARPVISNWENGKTEPSSSQLLKLAKIFDTSTDKILGNV	0.345
HMSKDKEKRTREHVLGILKKYDKVMTDKAFTVFKKMIKDESILEMELIKLINFIGERKEIRSKDVLAVVTE	-0.329
HMGAEIRDKVRAALAGLNPRAAEIFVMRYFDGYGNREIARLLNTSWSTIAVTLHRTRAKLQKELK	0.0552
HMKHMTMYEAAKIAKEVGAPKLWLTHYSPSMTRPEEFMDDVRKIFPAAYAAKDGWTMELNFDEG	-0.385
HMSNHYETLGVEQTASVDEIKKAYRRLSLQYHPDRNTTSDAVGKFQKINDAHEILSDKQSRTEYDMQLK	0.0857
HMSNFGALLRMRRLEAGLSYRGLAEQSGLARATLVNLEQGLTKPSPLTMRRLASVKALRLTEL	0.00389
HMKDLDSLSQEAKSVYAVFSDKPIHIDDIKRKTGLDFSKLFKAVTELELAELISSGEGKMYSL	-0.858
HMPGLITLEAAKTTALNHAKLTADQVTFVKQKLDRDDGRQVYEIEFYTSDYKEYDYEIDAVSGLILEVDYD	-0.33
